This is an account of results in the RNAGym collection of RNA variant scans (doi:10.7554/elife.80360).

B1: Hammerhead Ribozyme (parent)
chain: ACCGGAUGUGCUUUCCGGUCUGAUGAGUCCGUGAGGACGAAACAG

The variants in this data set derive from B1. Put plainly: self-cleavage, relative activity (ratio to wild type); higher = more cleavage; co-transcriptional.
Regarding A26U C43U, the self-cleavage worked out at 0.382. To U21G G22A belongs 0.324. U14G C29G: the self-cleavage turned out to be 0.737. To U24C A40C belongs 0.47; to G17C C20G, 0.279; to G27U U32A, 0.547.

For U13G C15A, the self-cleavage came out at 0.701. Take A26C C30A: the self-cleavage came out at 0.426. To U19C U28A belongs 0.524. To U13C G18U belongs 0.933; to A34C C43U, 0.287. To A34U G39C belongs 0.351; to G5A C16A, 1.56. With C2A C3A, the self-cleavage came out at 0.476. To G5C A34C belongs 0.336.

U24A G39C: the self-cleavage was found to be 0.496. Regarding U24A G39A, the self-cleavage turned out to be 0.382. To G27C A41C belongs 0.339.

For C15A G27C, the self-cleavage came to 0.435. To G27A U32G belongs 0.628. To G33A A42G belongs 0.256. For A23G G31C, the self-cleavage stood at 0.442. To C16A U32G belongs 0.899; to C38U A42C, 0.396. To C30G G39C belongs 0.334; to C29A A37U, 0.703; to G10U A34C, 1.13. To U19G C30G belongs 0.41; to A23G A37G, 0.314; to C2G A37U, 0.293. For the variant U9C U19A, the self-cleavage amounted to 0.286. As to U14C A23C, the self-cleavage stood at 0.373. To U9C C15G belongs 0.49. Regarding C29A G33U, the self-cleavage is 0.674. On to G8U U13A, for which the self-cleavage turned out to be 1.1. As to U14G A40U, the self-cleavage worked out at 0.356. Take G10A U28C: the self-cleavage turned out to be 1.37. To U13A C16U belongs 1.02; to C3U U24C, 0.956; to G8U C29A, 0.488. To G5A G10C belongs 1.16; to G18C, 0.62. Take U19G A26G: the self-cleavage came to 0.319.

As to U13G A44U, the self-cleavage turned out to be 0.644. To A1U U9A belongs 0.565; to G8C A23G, 0.376; to A1G U28A, 1.26.

Take A6C G33C: the self-cleavage came to 0.472. Turning to C16U A23U, the self-cleavage amounted to 0.358. To A6G U32A belongs 0.968; to A37U G45C, 0.363; to C15U A23U, 0.342. To G4C C30G belongs 0.371; to G8U G33A, 0.938. To C20U U24G belongs 0.714. Turning to C3G U9A, the self-cleavage is 0.411. To U13A G25A belongs 0.326; to G18A G22U, 0.373. To G8U A40G belongs 0.376; to C29G G45C, 0.371. To G33C C43U belongs 0.308; to A37C A41C, 0.285. With C16A C30A, the self-cleavage was determined as 0.911.

Regarding G31U G45A, the self-cleavage was 0.95. To U9C U21A belongs 0.496; to U32G C43A, 0.256. To C11G U12G belongs 1.17; to C16G G45C, 0.397.

G25A A41C: the self-cleavage amounted to 0.3. To G25C A34G belongs 0.332; to U19G C38A, 0.324; to A1U A6U, 0.46.

On to C15G G22A, for which the self-cleavage amounted to 0.376. On to G8U C20G, for which the self-cleavage came to 0.392. To U21C G27A belongs 0.597; to G4C G8U, 0.353; to C3A A44U, 0.392. To U7A C38G belongs 0.431; to G5U C11G, 0.815; to U12G U24C, 1.18. To U7C C29A belongs 0.685; to G22U A42C, 0.359.

Turning to U24C G27A, the self-cleavage turned out to be 0.53. To A6G G25C belongs 0.283; to C11A C30G, 0.955.

Turning to C3A A37G, the self-cleavage came to 0.539. On to C3G G22U, for which the self-cleavage stood at 0.276. To U7A A44C belongs 0.397. To U24G G27A belongs 0.504.

As for A6U C20G, the self-cleavage came to 0.378.

As to G4U A26U, the self-cleavage was 0.378. For G5A G45C, the self-cleavage is 0.554. To G22U A44C belongs 0.432; to G5C U7C, 0.72; to U7C U12A, 1.42.

For the variant U28C C30U, the self-cleavage came out at 0.573. To C2G A40C belongs 0.352; to C2A U32G, 0.469; to G22U A34C, 0.267. To U32G G39U belongs 0.317; to A26U C29A, 0.311; to U7G C11G, 1.52. To G33U A34U belongs 0.952; to U19A C38A, 0.313; to A6G G33A, 0.844. In the case of G25U G27U, the self-cleavage came to 0.31. With G17C C38G, the self-cleavage was 0.452. To G33C C38A belongs 0.493; to G8A G39A, 0.417. To U7C A34G belongs 0.863; to G31C A41G, 0.374. To U19G G39C belongs 0.297; to C15U C38A, 0.677; to A1G G8C, 1.47. As for C2A A6C, the self-cleavage was determined as 0.306. To A37G A40C belongs 0.407; to U13G G18U, 0.701; to C3G G5C, 0.268. With C3G G8C, the self-cleavage stood at 0.452. To C11A G22U belongs 0.246; to G5A C15A, 1.32. To C30U G31A belongs 1.02.

Turning to C3U G35U, the self-cleavage amounted to 0.761. To G8C U24C belongs 0.769. To C29U A37U belongs 0.371; to G31A G35C, 1.01. On to C20U G22U, for which the self-cleavage is 0.341. To U14G G18U belongs 0.522; to G18U A44C, 0.431; to U13G A42U, 0.333. To U12A C30U belongs 1.07. To C29A A40U belongs 0.314. U9G C11U: the self-cleavage was 0.342. To G4C A26U belongs 0.427; to C20A G27U, 0.302; to A34C A40U, 0.419.

For G22U G31U, the self-cleavage is 0.318.

On to G27U C38A, for which the self-cleavage was determined as 0.785. Take C29A C38G: the self-cleavage is 0.281.

C29A C38A: the self-cleavage worked out at 0.426. To U21G G31U belongs 0.743; to U7C C43U, 0.25; to G25U G35A, 0.282. G31C G39U: the self-cleavage came out at 0.373. To C16A G45A belongs 0.574; to A34C A37G, 0.588; to A6C G27A, 0.56. To A34G A44G belongs 1.23; to G8A C30U, 0.826. To G10A C29A belongs 0.654; to U21G G27A, 0.39; to C2A U7G, 0.518. For C30U U32G, the self-cleavage came out at 1.17.

For C30U U32C, the self-cleavage stood at 1.05. To G8A G18C belongs 0.574; to A23G G45C, 0.33. To G18A C30A belongs 0.607.

Take U9C G39U: the self-cleavage amounted to 0.264.

Take U9A A41G: the self-cleavage turned out to be 0.357.

For C20G A26G, the self-cleavage was 0.302.

As to G10A G18U, the self-cleavage is 1.13.

In the case of A23U A41G, the self-cleavage was determined as 0.301. To G17C A23U belongs 0.326; to C30U G36A, 0.547; to A1U G25U, 0.435. For the variant C3A U9G, the self-cleavage is 0.327.

Regarding G36A A42G, the self-cleavage came to 0.25.
